Among the data in article PMC10858199 (2024) are Kd values, retold here.

The test deals with Amyloid-beta aggregates (Homo sapiens, UniProt P05067). The experiment in a line: SPR. For orientation: In SPR one partner is held on a chip, and binding of the other changes the refractive index at the surface.

B1: CR4 I-domain (protein)
chain: RNFATMMNFVRAVISQFQRPSTQFSLMQFSNKFQTHFTFEEFRRSSNPLSLLASVHQLQGFTYTATAIQNVVHRLFHASYGARRDAAKILIVITDGKKEGDSLDYKDVIPMADAAGIIRYAIGVGLAFQNRNSWKELNDIASKPSQEHIFKVEDFDALKDIQNQLKEKIFAIEGT
By Kd is commonly meant the constant that tells how readily two partners part at equilibrium. Read a low Kd as higher affinity. B1 registered a Kd of approximately 1000 nM.
